Measurements as given in patent publication US8252554B2, “Halohydrin dehalogenases and related polynucleotides” (Codexis, Inc., priority 2003, dated 2012).

Assay: Example 5A gas chromatography assay of HHDH activity (conversion of ECHB to ethyl (R)-4-cyano-3-hydroxybutyrate)
Format: biochemical
Conditions: for HHDH activity greater than the HHDH activity of Agrobacterium sp. (wild-type) HHDH (SEQ ID NO: 2): assay described in Example 5A; for Fold Improvement in HHDH Activity over Aerobacterium sp. HHDH (SEQ ID NO: 2): ECHB substrate, Activity of Improved HHDH Enzyme/Activity of Agrobacterium sp. HHDH (SEQ ID NO: 2)
Description: To a solution of ethyl (S)-4-chloro-3-hydroxybutyrate (10 mM-100 mM) in 500 mM HCN (500 mM NaCN adjusted to pH 7.0 with phosphoric acid) was added the halohydrin dehalogenase enzyme as a predissolved solution in the same buffer. Over time, aliquots of the mixture were withdrawn and extracted with three volumes of ethyl acetate. The organic layer was then analysed for ethyl (R)-4-cyano-3-hydroxybutyrate by gas chromatography (GC), as described hereinbelow in Example 6. Samples were taken at various time points, and the peak area of the product cyanohydrin, ethyl (R)-4-cyano-3-hydroxybutyrate, was plotted as a function of time. Time points are selected at low conversion, for example, less than 5% conversion, to avoid the effect of product inhibition (e.g., 0.5%, 1.0%, 1.5%, 2.0%, 2.5%, 3.0%, etc.). The peak areas were converted to concentration units using a standard curve that was prepared for the ethyl (R)-4-cyano-3-hydroxybutyrate. Activity of the halohydrin dehalogenase was determined in units of μmol (cyanohydrin produced)/min/mg (total halohydrin dehalogenase catalyst). Relative activities of some of the clones are shown in Table 2, computed as Activity of Improved HHDH Enzyme/Activity of Agrobacterium sp. HHDH (SEQ ID NO: 2).
The ethyl (R)-4-cyano-3-hydroxybutyrate produced in Example 5A was analyzed using gas chromatography with flame ionization (FID) detection using an Agilent® HP-5™ column, 30 m long, 0.32 mm inner diameter, film 0.25 μm, using the following program: 1 minute at 100° C., 5° C./minute for 10 minutes; 25° C./minute for 2 minutes; then 2 minutes at 200° C. Inlet and outlet temperatures were both 300° C., and the flow rate was 2 ml/minute. Under these conditions, ethyl (R)-4-cyano-3-hydroxybutyrate elutes at 6.25 minutes and ethyl (S)-4-chloro-3-hydroxybutyrate elutes at 4.5 minutes. Chemical purity of the species was measured using the integrated peak areas from the gas chromatography results.

Molecule | HHDH activity greater than the HHDH activity of Agrobacterium sp. (wild-type) HHDH (SEQ ID NO: 2) | Fold Improvement in HHDH Activity over Aerobacterium sp. HHDH (SEQ ID NO: 2) [Fold]
W139R/N176E: intermediate active HHDH variant with W139 and N176 mutated into an apparent salt bridge (with reference to SEQ ID NO: 2) (protein) MSTAIVTNVKHFGGMGSALRLSEAGHTVACHDESFKQKDELEAFAETYPQLKPMSEQEPAELIEAVTSAYGQVDVLVSNDIFAPEFQPIDKYAVEDYRGAVEALQIRPFALVNAVASQMKKRKSGHIIFITSATPFGPRKELSTYTSARAGACTLANALSKELGEYNIPVFAIGPEYLHSEDSPYFYPTEPWKTNPEHVAHVKKVTALQRLGTQKELGELVAFLASGSCDYLTGQVFWLAGGFPMIERWPGMPE | greater HHDH activity relative to wildtype HHDH | –
SEQ ID NO: 34: improved HHDH (halohydrin dehalogenase) polypeptide of the Sequence Listing (protein) MSPAIVTNVKHFGGMGTALRLSEAGQTVACHDESFKQKDELEAFAETYPQLKPMSEQEPAELIEAVTSAYGQVDVLVSNDIFAPEFQPIDKYAVEDYRGAVEALQIRPFALVNAVASQMKKRKSGHIIFITSATPFGPWKELSTYTSARAGACTLANALSKELGEYNIPVFAIGPNYLHSEDSPYFYPTEPWKTNPEHVAHVKKVTALQRLGTQKELGELVAFLASGSCDYLTGQVFWLAGGFPMIERWPGMPE | – | 2.4
SEQ ID NO: 10: improved HHDH (halohydrin dehalogenase) polypeptide of the Sequence Listing (protein) MTAAIVTNVKHFGGMGSALRLSEAGHTVTCHDERLKQKDELEAFAETYPQLNPMSEQEPAELIEAVTSAYGQVDVLVSNDIFAPEFQPIDKYAVEDYRGAVEALQIRPFALVNAVASQMKKRKSGHIIFITSATPFGPWKELSTYTSARAGACTLANALSKELGEYNIPVFAIGPNYLHSEDSPYFYPTEPWKTNPEHVAHVKKVTALQRLGTQKELGELVAFLASGSCDYLTGQVFWLAGGFPMIERWPGMPE | – | 1.7
SEQ ID NO: 22: improved HHDH (halohydrin dehalogenase) polypeptide of the Sequence Listing (protein) MSTAIVTNVKHFGGMGSALRLSEAGHTVACHDESFNQKDELEAFAETYPQLKPMSEQEPAELIEAVTSAYGQVDVLVSNDIFAPEFQPIDKYAVEDYRGAVEALQIRPFALVNAVASQMKKRKSGHIIFITSATPFGPWKELSTYTSARAGACTLANALSKELGEYNIPVFAIGPNYLHSEDSPYFYPTEPWKTNPEHVAHVKKVTALQRLGTQKELGELVAFLASGSCDYLTGQVFWLAGGFPMIERWPGVPE | – | 2.5
SEQ ID NO: 20: improved HHDH (halohydrin dehalogenase) polypeptide of the Sequence Listing (protein) MSPAIVTNVKHFGGMGSALRLSEAGHTVACHDESFKQKDELEAFAETYPQLKPMSEQEPAELIEAVTSAYGQVDVLVSNDIFAPEFQPIDKYAVEDYRGAVEALQIRPFALVNAVASQMKKRKSGHIIFITSATPFGPWKELSTYTSARAGACTLANALSKELGEYNIPVFAIGPNYLHSEDSPYFYPTEPWKTNPEHVAHVKKVTALQRLGTQKELGELVAFLASGSCDYLTGQVFWLAGGFPMIERWPGMPE | – | 3.8
W139D/N176R: intermediate active HHDH variant with W139 and N176 mutated into an apparent salt bridge (with reference to SEQ ID NO: 2) (protein) MSTAIVTNVKHFGGMGSALRLSEAGHTVACHDESFKQKDELEAFAETYPQLKPMSEQEPAELIEAVTSAYGQVDVLVSNDIFAPEFQPIDKYAVEDYRGAVEALQIRPFALVNAVASQMKKRKSGHIIFITSATPFGPDKELSTYTSARAGACTLANALSKELGEYNIPVFAIGPRYLHSEDSPYFYPTEPWKTNPEHVAHVKKVTALQRLGTQKELGELVAFLASGSCDYLTGQVFWLAGGFPMIERWPGMPE | greater HHDH activity relative to wildtype HHDH | –
SEQ ID NO: 16: improved HHDH (halohydrin dehalogenase) polypeptide of the Sequence Listing (protein) MSTAIVTNVKHFGGMGSALRLSEAGHTVACHDESFKQKDELEAFAETYPQLKPMSEQEPAELIEAVTSAYGQVDVLVSNDIFAPEFQPIDKYAVEDYRGAVEALQIRPFALVNAVASQMKKRKSGHIIFITSATPLGPWKELSTYTSARAGACTLANALSKELGEYNIPVFAIGPNYLHSEDSPYFYPTEPWKTNPEHVAHVKKVTALQRLGTQKELGELVAFLASGSCDYLTGQVFWLAGGFPMIERWPGMPE | – | 2.0
SEQ ID NO: 14: improved HHDH (halohydrin dehalogenase) polypeptide of the Sequence Listing (protein) MSTAIDTNVKHFGSKGTALRLSEAGHTVACHDESFKQKDDLEAFAETYPQLKPMSEQEPAELIEAVTSAYGQVDVLVSNDIFAPEFQPIDKYAVEDYRGAVEALQIRPFALVNAVASQMKKRKSGHIIFITSSTPFGPWKELSTYTSARAGACTLANALSKELGEYNIPVFAIGPNYLHSEDSPYFYPTEPWKTNPEHVAHVKKVTALQRLGTQKELGELVAFLASGSCDYLTGQVFWLAGGFPMIERWPGMPE | – | 1.4
SEQ ID NO: 26: improved HHDH (halohydrin dehalogenase) polypeptide of the Sequence Listing (protein) MSTAIVTNVKHFGGMGSALRLSEAGHTVACHDESFKQKDELEAFAETYPQLKPMSEQEPAELIEAVTSAYGQVDVLVSNDIFAPEFQPIDKYAVEDYRGAVEALQIRPFALVNAVASQMKKRKSGHIIFITSATPLGPWKELSTYTSARAGACTLANALSKELGEYNIPVFAIGPNYLHSEDSPYFYPTEPWKTNPEHVAHVKKVTALQRLGTQKELGELVAFLASGSCDYLTGQVFWLAGGFPMIERWPGMPE | – | 1.7
SEQ ID NO: 24: improved HHDH (halohydrin dehalogenase) polypeptide of the Sequence Listing (protein) MSTAIVTNVKHFGGMGSALRLSEAGHTVACHDESFKQKDELEAFAETYPQLKPMSEQEPAELIEAVTSAYGQVDVLVSNDIFAPEFQPIDKYAVEDYRGAVEALQIRPFALVNAVASQMKKRKSGHIIFITSATPFGPWKELSTYTSARAGACTLANALSKELGEYNIPVFAIGPNYLHSEDSPYFYPTEPWKTNPEHMAHVKKVTALQRLGTQKELGELVAFLASGSCDYLTGQVFWLAGGFPMIERWPGMPE | – | 3.2
SEQ ID NO: 12: improved HHDH (halohydrin dehalogenase) polypeptide of the Sequence Listing (protein) MSPAIVTNIKHFSGMCRALRLSEAGHTVACHDESFKQKDELEAFAETYPQLKPMSEQEPAELIEAVTSAYGQVDVLVSNDIFAPEFQPIDKYAVEDYRGAVEALQIRPFALVNAVASQMKKRKSGHIIFITSATPFGPWKELSTYTSARAGACTLANALSKELGEYNIPVFAIGPNYLHSEDSPYFYPTEPWKTNPEHVAHVKKVTALQRLGTQKELGELVAFLASGSCDYLTGQVFWLAGGFPMIERWPGMPE | – | 2.5
SEQ ID NO: 18: improved HHDH (halohydrin dehalogenase) polypeptide of the Sequence Listing (protein) MSTAIVTNVKHFGGMGSALRLSEAGHTVACHDESFKQKDELEAFAETYPQLKPMSEQEPAELIEAVTSAYGQVDVLVSNDIFAPEFQPIDKYAVEDYRGAVEALQIRPFALVNAVASQMKKRKSGHIIFITSATPFGPWKELSTYTSARAGACTLANALSKELGEYNIPVFAIGPNYLHSEDSPYFYPTEPWKTNPEHVAHVKKVTALQRLGTQKELGELVAFLASGSCDYLTGQGFFLAGGFPMIERWPGM | – | 2.7
